In PMC9283627, “Auxotrophic and prototrophic conditional genetic networks reveal the rewiring of transcription factors in Escherichia coli”:

Molecular target: T1, YneJ (Escherichia coli (K-12 strain not …, UniProt P77309 1-293))
T1 sequence: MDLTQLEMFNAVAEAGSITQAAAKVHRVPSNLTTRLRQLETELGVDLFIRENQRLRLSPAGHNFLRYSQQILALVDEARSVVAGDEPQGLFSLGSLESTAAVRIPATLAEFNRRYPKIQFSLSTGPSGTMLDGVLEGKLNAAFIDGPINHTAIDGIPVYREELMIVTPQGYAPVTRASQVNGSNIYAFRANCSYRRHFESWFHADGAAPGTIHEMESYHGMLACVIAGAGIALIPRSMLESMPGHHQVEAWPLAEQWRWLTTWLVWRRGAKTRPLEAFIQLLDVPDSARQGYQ
Assay: fluorescence polarization; 2 mM Gln; PBS (pH 6.5), 0.5 mM EDTA, 7 mM MgCl2, 100 mM KCl, 5 mM phosphate, herring sperm DNA, 50 C; 10 nM labeled dsDNA
Conditions: protein: recombinant; tags: N-terminal His6 (Methods; called YneJ-His6 in text); chain copies: 4; label: 6-FAM on S41 (printed at the 5' end; Methods say 3' end); blunt

B1: sad-yneJ consensus motif 21 bp (dsDNA)
DNA 1: GGGTTCTCGATTCGTGAAGGG
DNA 2: CCCTTCACGAATCGAGAACCC
B1: binds.
